Source: patent US20240376151A1, “STAPLED PEPTIDES AND METHODS THEREOF” (FOG PHARMACEUTICALS, INC., priority 2022, published 2024)
Bridge positions count the residues as written; N and C are the ends.

Target: T1, RNF31 PUB domain (Homo sapiens, UniProt Q96EP0)
T1 construct: MBP-TEV (N, cleaved yes); made in house; host or cells: E. coli BL21 (DE3) pLysS
T1 sequence (Q96EP0 1-179): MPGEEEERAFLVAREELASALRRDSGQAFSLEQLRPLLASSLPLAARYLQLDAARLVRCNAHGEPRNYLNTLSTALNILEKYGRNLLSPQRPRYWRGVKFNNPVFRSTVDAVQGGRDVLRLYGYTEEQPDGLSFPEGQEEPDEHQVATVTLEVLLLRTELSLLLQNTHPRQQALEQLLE
Assay: Phage Library Screening with NGS, RNF31 PUB domain
Assay type: binding
Conditions: for Phage library screen NGS readout, Target Concentration 10 / Phage library screen NGS readout, Target Concentration 30 / Phage library screen NGS readout, Target Concentration 100 / Phage library screen NGS readout, Target Concentration 300 / Phage library screen NGS readout, Target Concentration 1000: RNF31 PUB domain clusters C41-C45; for Phage library screen NGS readout, BLANK: clusters C41-C45

[1] = target concentration 1000, first column
[2] = target concentration 1000, second column

DPAIQECYLAAQVCTTY
Phage library screen NGS readout, Target Concentration 10: 0
Phage library screen NGS readout, Target Concentration 30: 0
Phage library screen NGS readout, Target Concentration 100: 0
Phage library screen NGS readout, Target Concentration 300: 4
Phage library screen NGS readout, Target Concentration 1000 [1]: 14
Phage library screen NGS readout, Target Concentration 1000 [2]: 13
Phage library screen NGS readout, BLANK (column 1 of 5): 0
Phage library screen NGS readout, BLANK (column 2 of 5): 0
Phage library screen NGS readout, BLANK (column 3 of 5): 0
Phage library screen NGS readout, BLANK (column 4 of 5): 0
Phage library screen NGS readout, BLANK (column 5 of 5): 0

DPAIRECMLAALVCSTY
Phage library screen NGS readout, Target Concentration 10: 0
Phage library screen NGS readout, Target Concentration 30: 1
Phage library screen NGS readout, Target Concentration 100: 3
Phage library screen NGS readout, Target Concentration 300: 10
Phage library screen NGS readout, Target Concentration 1000 [1]: 42
Phage library screen NGS readout, Target Concentration 1000 [2]: 49
Phage library screen NGS readout, BLANK (column 1 of 5): 0
Phage library screen NGS readout, BLANK (column 2 of 5): 0
Phage library screen NGS readout, BLANK (column 3 of 5): 0
Phage library screen NGS readout, BLANK (column 4 of 5): 1
Phage library screen NGS readout, BLANK (column 5 of 5): 0

DPAIVQCAWAALYCDMQ (Ac-DPAIVQCAWAALYCDMQ-NH2; bridge 7-14; also: Cys-Cys staple, linker not named)
Phage library screen NGS readout, Target Concentration 10: 0
Phage library screen NGS readout, Target Concentration 30: 0
Phage library screen NGS readout, Target Concentration 100: 0
Phage library screen NGS readout, Target Concentration 300: 7
Phage library screen NGS readout, Target Concentration 1000 [1]: 22
Phage library screen NGS readout, Target Concentration 1000 [2]: 20
Phage library screen NGS readout, BLANK (column 1 of 5): 0
Phage library screen NGS readout, BLANK (column 2 of 5): 0
Phage library screen NGS readout, BLANK (column 3 of 5): 0
Phage library screen NGS readout, BLANK (column 4 of 5): 0
Phage library screen NGS readout, BLANK (column 5 of 5): 0

DPAIWECVSAAAVCMTY
Phage library screen NGS readout, Target Concentration 10: 0
Phage library screen NGS readout, Target Concentration 30: 0
Phage library screen NGS readout, Target Concentration 100: 0
Phage library screen NGS readout, Target Concentration 300: 2
Phage library screen NGS readout, Target Concentration 1000 [1]: 7
Phage library screen NGS readout, Target Concentration 1000 [2]: 7
Phage library screen NGS readout, BLANK (column 1 of 5): 0
Phage library screen NGS readout, BLANK (column 2 of 5): 0
Phage library screen NGS readout, BLANK (column 3 of 5): 0
Phage library screen NGS readout, BLANK (column 4 of 5): 1
Phage library screen NGS readout, BLANK (column 5 of 5): 0

DPAIYQCSLAADICSTY
Phage library screen NGS readout, Target Concentration 10: 1
Phage library screen NGS readout, Target Concentration 30: 3
Phage library screen NGS readout, Target Concentration 100: 3
Phage library screen NGS readout, Target Concentration 300: 3
Phage library screen NGS readout, Target Concentration 1000 [1]: 7
Phage library screen NGS readout, Target Concentration 1000 [2]: 8
Phage library screen NGS readout, BLANK (column 1 of 5): 2
Phage library screen NGS readout, BLANK (column 2 of 5): 2
Phage library screen NGS readout, BLANK (column 3 of 5): 0
Phage library screen NGS readout, BLANK (column 4 of 5): 0
Phage library screen NGS readout, BLANK (column 5 of 5): 0

DPALDYCLYAAYDCMYA
Phage library screen NGS readout, Target Concentration 10: 0
Phage library screen NGS readout, Target Concentration 30: 0
Phage library screen NGS readout, Target Concentration 100: 0
Phage library screen NGS readout, Target Concentration 300: 3
Phage library screen NGS readout, Target Concentration 1000 [1]: 5
Phage library screen NGS readout, Target Concentration 1000 [2]: 12
Phage library screen NGS readout, BLANK (column 1 of 5): 0
Phage library screen NGS readout, BLANK (column 2 of 5): 3
Phage library screen NGS readout, BLANK (column 3 of 5): 0
Phage library screen NGS readout, BLANK (column 4 of 5): 0
Phage library screen NGS readout, BLANK (column 5 of 5): 0

DPALEDCQWAALYCDEY
Phage library screen NGS readout, Target Concentration 10: 0
Phage library screen NGS readout, Target Concentration 30: 0
Phage library screen NGS readout, Target Concentration 100: 1
Phage library screen NGS readout, Target Concentration 300: 2
Phage library screen NGS readout, Target Concentration 1000 [1]: 7
Phage library screen NGS readout, Target Concentration 1000 [2]: 9
Phage library screen NGS readout, BLANK (column 1 of 5): 1
Phage library screen NGS readout, BLANK (column 2 of 5): 1
Phage library screen NGS readout, BLANK (column 3 of 5): 1
Phage library screen NGS readout, BLANK (column 4 of 5): 0
Phage library screen NGS readout, BLANK (column 5 of 5): 0

DPALEICWDAAIQCSYV
Phage library screen NGS readout, Target Concentration 10: 2
Phage library screen NGS readout, Target Concentration 30: 3
Phage library screen NGS readout, Target Concentration 100: 4
Phage library screen NGS readout, Target Concentration 300: 47
Phage library screen NGS readout, Target Concentration 1000 [1]: 186
Phage library screen NGS readout, Target Concentration 1000 [2]: 171
Phage library screen NGS readout, BLANK (column 1 of 5): 2
Phage library screen NGS readout, BLANK (column 2 of 5): 0
Phage library screen NGS readout, BLANK (column 3 of 5): 0
Phage library screen NGS readout, BLANK (column 4 of 5): 3
Phage library screen NGS readout, BLANK (column 5 of 5): 1

DPALRDCLDAAIMCTYT
Phage library screen NGS readout, Target Concentration 10: 0
Phage library screen NGS readout, Target Concentration 30: 1
Phage library screen NGS readout, Target Concentration 100: 0
Phage library screen NGS readout, Target Concentration 300: 4
Phage library screen NGS readout, Target Concentration 1000 [1]: 5
Phage library screen NGS readout, Target Concentration 1000 [2]: 7
Phage library screen NGS readout, BLANK (column 1 of 5): 0
Phage library screen NGS readout, BLANK (column 2 of 5): 0
Phage library screen NGS readout, BLANK (column 3 of 5): 0
Phage library screen NGS readout, BLANK (column 4 of 5): 0
Phage library screen NGS readout, BLANK (column 5 of 5): 0

DPALSHCTVAAMVCSTY
Phage library screen NGS readout, Target Concentration 10: 1
Phage library screen NGS readout, Target Concentration 30: 1
Phage library screen NGS readout, Target Concentration 100: 1
Phage library screen NGS readout, Target Concentration 300: 11
Phage library screen NGS readout, Target Concentration 1000 [1]: 96
Phage library screen NGS readout, Target Concentration 1000 [2]: 69
Phage library screen NGS readout, BLANK (column 1 of 5): 0
Phage library screen NGS readout, BLANK (column 2 of 5): 0
Phage library screen NGS readout, BLANK (column 3 of 5): 2
Phage library screen NGS readout, BLANK (column 4 of 5): 0
Phage library screen NGS readout, BLANK (column 5 of 5): 0

DPALVTCTWAAIYCDDF
Phage library screen NGS readout, Target Concentration 10: 1
Phage library screen NGS readout, Target Concentration 30: 1
Phage library screen NGS readout, Target Concentration 100: 2
Phage library screen NGS readout, Target Concentration 300: 1
Phage library screen NGS readout, Target Concentration 1000 [1]: 4
Phage library screen NGS readout, Target Concentration 1000 [2]: 10
Phage library screen NGS readout, BLANK (column 1 of 5): 0
Phage library screen NGS readout, BLANK (column 2 of 5): 1
Phage library screen NGS readout, BLANK (column 3 of 5): 0
Phage library screen NGS readout, BLANK (column 4 of 5): 2
Phage library screen NGS readout, BLANK (column 5 of 5): 0
